This is an account of results in paper PMC7229167, “Atypical chemokine receptor ACKR2-V41A has decreased CCL2 binding, scavenging, and activation, supporting sustained inflammation and increased Alzheimer’s disease risk” (Scientific Reports, 2020).

In experiment [1] the target is T1, Atypical chemokine receptor 2, wild type (ACKR2-WT) (human, UniProt O00590 1-384).
T1 construct: Atypical chemokine receptor 2 (ACKR2), human, wild type allele, expressed on the surface of CHO-k1 cells; also called CCBP-WT; source: CHO-k1 cells, transfected (lipofectamine), G418 selected, enriched with anti-PE MicroBeads; on cells
T1 sequence (looked up): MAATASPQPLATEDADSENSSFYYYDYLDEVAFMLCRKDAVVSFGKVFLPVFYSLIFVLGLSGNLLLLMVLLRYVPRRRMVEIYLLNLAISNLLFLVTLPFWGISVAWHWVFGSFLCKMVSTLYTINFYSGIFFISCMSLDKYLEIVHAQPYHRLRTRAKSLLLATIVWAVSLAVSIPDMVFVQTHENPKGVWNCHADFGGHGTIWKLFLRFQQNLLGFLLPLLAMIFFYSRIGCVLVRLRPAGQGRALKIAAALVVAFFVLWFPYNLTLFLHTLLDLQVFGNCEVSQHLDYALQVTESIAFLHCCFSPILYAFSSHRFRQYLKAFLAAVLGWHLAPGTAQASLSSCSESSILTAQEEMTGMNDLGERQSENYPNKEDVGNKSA
The experiment in a line: flow cytometry on cells; competition: transfected CHO-k1 cells incubated with unconjugated chemokine at 37 °C for 45 minutes, then stained with anti-human ACKR2 polyclonal IgG and PE secondary; blockage = 100 minus percent of ACKR2-positive cells; titration with non-linear analysis for Kd. The settings on record: one partner purified. A general note: Flow cytometry measures light scatter and fluorescence of single cells or particles in a stream.

The target of experiment [2] is T2, Atypical chemokine receptor 2 variant V41A (ACKR2-V41A; rs2228467) (human, UniProt O00590 1-384, V41A).
T2 construct: Atypical chemokine receptor 2 (ACKR2), human, natural variant V41A (rs2228467), expressed on the surface of CHO-k1 cells; also called ACRK2-V41A; source: CHO-k1 cells, transfected (lipofectamine), G418 selected, enriched with anti-PE MicroBeads; on cells
T2 sequence (looked up): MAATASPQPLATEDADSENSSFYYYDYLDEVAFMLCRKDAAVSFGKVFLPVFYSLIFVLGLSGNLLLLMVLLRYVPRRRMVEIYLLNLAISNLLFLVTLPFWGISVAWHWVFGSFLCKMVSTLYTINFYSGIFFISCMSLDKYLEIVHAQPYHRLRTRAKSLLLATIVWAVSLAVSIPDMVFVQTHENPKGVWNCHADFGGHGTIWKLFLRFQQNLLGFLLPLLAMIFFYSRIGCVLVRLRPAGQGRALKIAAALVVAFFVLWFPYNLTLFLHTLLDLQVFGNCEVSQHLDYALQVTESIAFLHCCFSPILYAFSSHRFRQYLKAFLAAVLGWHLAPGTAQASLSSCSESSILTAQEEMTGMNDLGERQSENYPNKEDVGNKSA
The experiment is described as above. The settings on record: one partner purified.

B1: Chemokine ligand 4 (CCL4), unconjugated (ligand, UniProt P13236 24-92, looked up)
chain: APMGSDPPTACCFSYTARKLPRNFVVDYYETSSLCSQPAVVFQTKRSKQVCADPSESWVQEYVYDLELN
notes: Chemokine ligand 4 (CCL4), unconjugated; also called unconjugated CCL4; source: bought: PEPROTECH, Cat #300-.9
In the case of B1, the Kd – broadly, the equilibrium constant for the complex coming apart – in experiment [1] is 600 nM; in experiment [2] it was 2030 nM.
